Reference: patent publication US20250051437A1 (University of California, published 2025)
Where no end group is shown, it is not given here.

How the values were obtained:
[1] = target: T1, recombinant CDH17 extracellular domain (ECD) with 6x His tag (human, UniProt Q12864 23-787); assay: ELISA on recombinant CDH17 ECD-6xHis
T1 construct: also called Recombinant CDH17 ECD-6xhis tag

[2] = target: T2, human CDH17-mGFP fusion protein overexpressed on HEK293T cells (clone G11) (human, UniProt Q12864 23-832); assay: KinExA, cell-based, HEK293T CDH17mGFP clone G11
T2 construct: also called HEK293T CDH17mGFP Clone G11; HEK293T Human CDH17mGFP G11; not shown: mGFP fluorescent protein fused to CDH17
Description: The cell-based antibody affinity (KD) of the anti-CDH17 antibodies was measured by KinExA 4000 (Sapidyne Instrument, Boise, Idaho). Briefly, HEK293T overexpressing CDH17-fluorescent protein fusion (i.e., human CDH17-mGFP, monkey CDH17-mGFP, mouse CDH17-mGFP or rat CDH17-mGFP) were detached with Versene and equilibrated with either 50 pM, 200 pM, 20 nM, or 50 nM antibody in 2% FBS/DMEM at 4° C. overnight. The cell concentration started at 5×10⁶ cells/mL or 1×10⁷ cells/mL and 2-fold serial dilutions were performed up to 10 points. The next day, the cells were centrifuged at 1500 rpm for 10 min and the supernatants were saved. […] In contrast, while the humanized anti-CDH17 antibody, 07-0653-h43, fails to bind mouse CDH17 protein, it binds rat CDH17 protein equally well as to human and monkey CDH17 protein such that its Kp is less than about 1 nM for human, monkey and rat CDH17 proteins with overlapping 95% confidence interval values.

[3] = target: T3, rat CDH17 fused to moxGFP, overexpressed on HEK293T cells (rat, UniProt P55281 22-827); assay: flow cytometry on HEK293T rat CDH17mGFP mass population, 20 µg/ml
T3 construct: whole, on cells; also called HEK293T Rat CDH17mGFP mass pop; rat CDH17-moxGFP

[4] = target: T4, human cadherin-17 (CDH17), endogenously expressed on human cancer cell lines (LS513, SNU-C1, PaTu8988s, … (human, UniProt Q12864 23-832)); assay: KinExA, cell-based, SNUC1 cells
T4 construct: also called LS513 (Colon, CDH17+); HPAF2

Peptide 2 [5] = target: T5, Peptide 2 (also: biotin label, position not given here); assay: titration ELISA, antibody 1500 to 0.157 ng/ml, biotinylated peptide on streptavidin-coated plate
T5 construct: LDANGII with the first residue L changed to A; also called ADANGII
T5 peptide: ADANGII

Peptide 8 [6] = target: T6, Peptide 8 (also: biotin label, position not given here); assay: as above
T6 construct: LDANGII with the third residue A changed to G; also called LDGNGII
T6 peptide: LDGNGII

Peptide 1 [7] = target: T7, Peptide 1 (also: biotin label, position not given here); assay: as above
T7 construct: also called Original 7-mer peptide; LDANGII
T7 peptide: LDANGII

[8] = target: T4, human cadherin-17 (CDH17), endogenously …; assay: flow cytometry (iQue) on PATU8988S cells, 1 µg Ab
Peptide 5 = target: T8, Peptide 5 (also: biotin label, position not given here); assay: titration ELISA, biotinylated peptide on streptavidin-coated plate
T8 construct: LDANGII with the fifth residue G changed to A; also called LDANAII
T8 peptide: LDANAII

Peptide 4 = target: T9, Peptide 4 (also: biotin label, position not given here); assay: as above
T9 construct: LDANGII with the fourth residue N changed to A; also called LDAAGII
T9 peptide: LDAAGII

Peptide 6 = target: T10, Peptide 6 (also: biotin label, position not given here); assay: as above
T10 construct: LDANGII with the sixth residue I changed to A; also called LDANGAI
T10 peptide: LDANGAI

Peptide 2 [9] = target: T5, Peptide 2; assay: as above
Peptide 8 [10] = target: T6, Peptide 8; assay: as above
Peptide 1 [11] = target: T7, Peptide 1; assay: as above
Peptide 7 = target: T11, Peptide 7 (also: biotin label, position not given here); assay: as above
T11 construct: LDANGII with the seventh residue I changed to A; also called LDANGIA
T11 peptide: LDANGIA

Peptide 3 = target: T12, Peptide 3 (also: biotin label, position not given here); assay: as above
T12 construct: LDANGII with the second residue D changed to A; also called LAANGII
T12 peptide: LAANGII

[12] = target: T4, human cadherin-17 (CDH17), endogenously …; assay: flow cytometry (iQue) on SNUC1 cells, 0.2 µg Ab
[13] = target: T4, human cadherin-17 (CDH17), endogenously …; assay: flow cytometry on LS513 cells (CDH17+), 20 µg/ml
[14] = target: T4, human cadherin-17 (CDH17), endogenously …; assay: flow cytometry (iQue) on SNUC1 cells, 1 µg Ab

T3 sequence (P55281 22-827): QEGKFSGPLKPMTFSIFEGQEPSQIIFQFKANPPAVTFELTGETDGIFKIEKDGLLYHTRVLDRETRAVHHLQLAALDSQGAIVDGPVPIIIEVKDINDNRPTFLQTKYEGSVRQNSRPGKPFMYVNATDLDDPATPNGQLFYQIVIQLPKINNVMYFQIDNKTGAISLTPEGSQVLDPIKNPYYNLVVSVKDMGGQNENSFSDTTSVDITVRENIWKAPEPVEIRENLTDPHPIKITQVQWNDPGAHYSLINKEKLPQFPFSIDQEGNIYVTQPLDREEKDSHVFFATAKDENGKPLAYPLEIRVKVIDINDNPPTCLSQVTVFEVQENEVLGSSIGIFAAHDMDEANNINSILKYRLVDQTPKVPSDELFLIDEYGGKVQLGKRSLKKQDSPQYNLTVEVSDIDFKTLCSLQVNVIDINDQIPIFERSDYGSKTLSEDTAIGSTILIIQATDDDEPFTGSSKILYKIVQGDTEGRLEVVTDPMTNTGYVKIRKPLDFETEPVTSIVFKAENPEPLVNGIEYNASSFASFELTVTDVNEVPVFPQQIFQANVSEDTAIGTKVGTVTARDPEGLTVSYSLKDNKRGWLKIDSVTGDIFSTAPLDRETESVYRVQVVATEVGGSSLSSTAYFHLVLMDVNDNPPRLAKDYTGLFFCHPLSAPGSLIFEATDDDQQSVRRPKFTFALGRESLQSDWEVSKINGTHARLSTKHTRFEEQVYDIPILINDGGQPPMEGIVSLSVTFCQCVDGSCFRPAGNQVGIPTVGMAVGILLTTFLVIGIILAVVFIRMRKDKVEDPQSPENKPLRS

EC50 [1]: 1.22 nM | Kd [2]: 0.152 nM | Cross Reactivity by Flow [3]: 2160 | Kd [4]: 0.157 nM | EC50 (Peptide 2 [5]): 0.126 nM | EC50 (Peptide 8 [6]): 2.98 nM | EC50 (Peptide 1 [7]): 0.16 nM | Antibody Binding Activity by Flow iQue [8]: 101000 | ELISA reading at 1500 ng/ml antibody, lower of two rows (Peptide 5): 0.0383 | ELISA reading at 1500 ng/ml antibody, upper of two rows (Peptide 5): 0.0394 | binding result (Peptide 5): no binding (tested: 1500 ng/ml) | ELISA reading at 1500 ng/ml antibody, lower of two rows (Peptide 4): 0.038 | ELISA reading at 1500 ng/ml antibody, upper of two rows (Peptide 4): 0.0379 | binding result (Peptide 4): no binding (tested: 1500 ng/ml) | ELISA reading at 1500 ng/ml antibody, lower of two rows (Peptide 6): 0.0357 | ELISA reading at 1500 ng/ml antibody, upper of two rows (Peptide 6): 0.0371 | binding result (Peptide 6): no binding (tested: 1500 ng/ml) | ELISA reading at 1500 ng/ml antibody, lower of two rows (Peptide 2 [9]): 2.71 | ELISA reading at 1500 ng/ml antibody, upper of two rows (Peptide 2 [9]): 2.65 | ELISA reading at 1500 ng/ml antibody, lower of two rows (Peptide 8 [10]): 2.14 | ELISA reading at 1500 ng/ml antibody, upper of two rows (Peptide 8 [10]): 2.1 | ELISA reading at 1500 ng/ml antibody, lower of two rows (Peptide 1 [11]): 2.76 | ELISA reading at 1500 ng/ml antibody, upper of two rows (Peptide 1 [11]): 3.1 | ELISA reading at 1500 ng/ml antibody, lower of two rows (Peptide 7): 2.74 | ELISA reading at 1500 ng/ml antibody, upper of two rows (Peptide 7): 2.8 | ELISA reading at 1500 ng/ml antibody, lower of two rows (Peptide 3): 0.0369 | ELISA reading at 1500 ng/ml antibody, upper of two rows (Peptide 3): 0.0377 | binding result (Peptide 3): no binding (tested: 1500 ng/ml) | Antibody Binding Activity by Flow iQue [12]: 163000 | Antibody Binding Activity by Flow Cytometry [13]: 74700 | Antibody Binding Activity by Flow iQue [14]: 76100
B1: humanized anti-CDH17 antibody 07-0663-h7 (antibody, human IgG1, kappa, V domains shown)
VH: QVQLVQSGAEVKKPGSSVKISCKVSGYTFTDHTIHWMRQAPGQGLEWIGYIFPRDDIVVYAQKFQGRATLTADKSTSTAYMELSSLRSEDTAVYYCARPPYYYSRNFYFDYWGQGTTLTVSS
VL: DIQMTQSPSSLSASVGDRVTITCRVSSIISSSKLHWYQQKPGKAPKPLIYGTSTLASGVPSRFSGSGSGTDYTLTISSLQPEDFATYYCQQWSNYPFTFGQGTKLEIKR
notes: Human IgG1 / kappa
